T1: bovine pancreatic trypsin (Bos taurus, UniProt P00760)
T1 construct: purchased Serva; host or cells: bovine pancreas
T1 sequence (P00760 24-246): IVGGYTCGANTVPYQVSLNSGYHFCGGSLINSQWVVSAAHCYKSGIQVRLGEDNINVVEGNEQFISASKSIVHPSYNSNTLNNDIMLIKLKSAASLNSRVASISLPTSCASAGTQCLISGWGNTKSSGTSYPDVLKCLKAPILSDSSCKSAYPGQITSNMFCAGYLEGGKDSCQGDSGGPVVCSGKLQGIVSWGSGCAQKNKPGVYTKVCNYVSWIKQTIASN

T2: lesional elastase activity in psoriasis, contact dermatitis and atopic dermatitis (Homo sapiens, UniProt P08246)
T2 sequence (P08246 30-267): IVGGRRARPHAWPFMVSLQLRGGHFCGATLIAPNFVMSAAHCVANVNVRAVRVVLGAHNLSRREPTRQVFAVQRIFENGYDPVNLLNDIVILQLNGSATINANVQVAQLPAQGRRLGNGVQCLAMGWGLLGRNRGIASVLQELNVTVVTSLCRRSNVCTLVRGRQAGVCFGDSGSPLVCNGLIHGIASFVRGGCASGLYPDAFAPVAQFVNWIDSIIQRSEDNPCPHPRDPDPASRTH

T3: papaine (Carica papaya, UniProt P00784)
T3 construct: purchased Sigma
T3 sequence (P00784 134-345): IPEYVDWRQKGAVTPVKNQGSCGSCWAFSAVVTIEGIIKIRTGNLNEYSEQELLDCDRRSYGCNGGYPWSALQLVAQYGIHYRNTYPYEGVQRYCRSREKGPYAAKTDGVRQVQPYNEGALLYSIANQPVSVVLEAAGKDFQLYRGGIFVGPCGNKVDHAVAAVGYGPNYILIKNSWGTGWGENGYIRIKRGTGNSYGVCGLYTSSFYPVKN

B1: ovomucoid: protease inhibitor, 1% (w/v) in 0.1 M phosphate buffer pH 7.6 (protein, UniProt P01005 25-210, looked up)
Ovomucoid: AEVDCSRFPNATDKEGKDVLVCNKDLRPICGTDGVTYTNDCLLCAYSIEFGTNISKEHDGECKETVPMNCSSYANTTSEDGKVMVLCNRAFNPVCGTDGVTYDNECLLCAHKVEQGASVDKRHDGGCRKELAAVSVDCSEYPKPDCTAEDRPLCGSDNKTYGNKCNFCNAVVESNGTLTLSHFGKC
B2: STI: Trypsin inhibitor II-from Soybean (T-9003; Sigma) (protein, UniProt P01070 25-205, looked up)
Trypsin inhibitor A: DFVLDNEGNPLENGGTYYILSDITAFGGIRAAPTGNERCPLTVVQSRNELDKGIGTIISSPYRIRFIAEGHPLSLKFDSFAVIMLCVGIPTEWSVVEDLPEGPAVKIGENKDAMDGWFRLERVSDDEFNNYKLVFCPQQAEDDKCGDIGISIDHDDGTRRLVVSKNKPLVVQFQKLDKESL
B3: STI-A: STI-type I-S Sigma T 9003 (protein, UniProt P01070 25-205, looked up)
Trypsin inhibitor A: B2 Trypsin inhibitor A

How the values were obtained:
[1] = test system: therapy-resistant atopic dermatitis; details: small study; cited from earlier work
[2] = test system: peri-stomal and peri-anal irritation caused by feces; details: applied topically; cited from earlier work
[3] = test system: proteolytic activity in feces of CD patients; test: Inhibition of proteolytic activity in feces of CD patients (azocasein); assay type: biochemical, human; details: n = 4, inhibitor added to feces 1:2000 diluted, 20 h incubated with substrate
From the text: Fecal samples from twenty-seven patients with Crohn's disease (CD) were studied. Twelve patients, aged 27-58 years, had undergone intestinal surgery 3-12 years previously; locations of the resections were terminal ileum, ileum and caecum, and colon. A second group of patients was not operated; the principal sites of inflammation were ileum, ileum and colon, and colon. The diagnosis CD was established with the usual clinical, radiological and histopathological critria. All patients were outpatients.
(§1) Feces was frozen and stored at −20° C. within 3 h of passage. […] Samples of 1 g were transferred to 24 vol of 0.1 M phosphate buffer pH 7.6 and homogenized (‘Stomacher’, Lab blender 400). Coarse particles were removed from the homogenates by gauze filtration (Utermohlen, refolded to 2 layers); these samples are further referred to as ‘fecal homogenates’.
Proteolytic activity was determined in the fecal homogenates in appropriate dilutions (up to 250-fold) in 0.1 M phosphate buffer (pH 7.6). Penicilline (0.1% w/v) was added to prevent bacterial growth. In the more recent inhibition tests no penicillin was used. […] The absorption of the samples was measured at 450 nm and compared with standard curves obtained from solutions of azocasein. Proteolytic activity was expressed as milligrams azocasein hydrolysed during 1 h per gram dry or wet weight of sample. […]

[4] = target: T1, bovine pancreatic trypsin; test: Effect of protease inhibitors on purified enzymes: trypsin (azocasein); assay type: biochemical; details: for inhibition of trypsin activity: preliminary experiments; for % Inhibition of the proteolytic activity, trypsin: STI, STI-A, -B, -C 0.125% end concentration, enzyme 0.02%, Trasylol undil., PJ: 1 g PJ powder mixed with 2 ml and with 4 ml buffer
Description: (§2) Proteolytic activity was determined in the fecal homogenates in appropriate dilutions (up to 250-fold) in 0.1 M phosphate buffer (pH 7.6). Penicilline (0.1% w/v) was added to prevent bacterial growth. In the more recent inhibition tests no penicillin was used. Samples of 0.1 ml were incubated with 0.1 ml 1% (w/v) azocasein (Sigma) in phosphate buffer at 37° C. during 1 h. The reaction was stopped by addition of 0.2 ml 10% (w/v) trichloroacetic acid (TCA); after 10 min at room temperature unhydrolysed azocasein, bacteria and other particles were removed by centrifugation at 10,000 rpm during 10 min. Then 0.1 ml of the clear supernatant was transferred to 0.1 ml of 1 N NaOH in flatbottom 24 wells microplates. To the blank assays azocasein was added after incubation an addition of TCA. The absorption of the samples was measured at 450 nm and compared with standard curves obtained from solutions of azocasein. Proteolytic activity was expressed as milligrams azocasein hydrolysed during 1 h per gram dry or wet weight of sample. Each diluted sample was tested for other than enzymatic substrate hydrolysis after heating at 80° C. for 10 min. Spontaneous substrate hydrolysis was tested by incubation of the substrate with buffer.
(§3) In most of the experiments the inhibitor was added to feces (diluted 1:25 in buffer), mixed for 5-15 min and added to the substrate; PJ-powder was added to undiluted feces (1:1) and after mixing, diluted (1:25) with buffer. In each experiment controls were assayed (sterilized feces, sterilized inhibitors, buffer solutions).
bovine pancreatic trypsin (Serva)
(§4) All enzymes were used in a concentration of 0.2% (w/v) in buffer.
(§5) enzyme concentration was 0.02%, inhibitor concentration (end concentration) was 0.125%.

[5] = target: T4, bovine pancreatic α-chymotrypsin (Bos taurus, UniProt P00766); test: Effect of protease inhibitors on purified enzymes: chymotrypsin (azocasein); assay type: biochemical; details: for inhibition of α-chymotrypsin activity: preliminary experiments; for % Inhibition of the proteolytic activity, chymotrypsin: STI, STI-A, -B, -C 0.125% end concentration, enzyme 0.02%, Trasylol undil., PJ: 1 g PJ powder mixed with 2 ml and with 4 ml buffer
T4 construct: purchased Merck, Sigma; host or cells: bovine pancreas
Description: as §2, §3
bovine pancreatic α-chymotrypsin (Merck, Sigma)
as §4, §5

[6] = test system: proteolytic activity in feces of ileostomy dog / pouch dog; test: Inhibition of proteolytic activity in feces of ileostomy and pouch dogs (azocasein); assay type: biochemical
Description: Fecal samples from 20 colectomized dogs, purebred Beagles (Harlan) were collected. Three ileostomy groups were studied. In ten dogs a standard Brooke ileostomy was constructed by subtotal colectomy. In five dogs a valveless ileal reservoir (pouch) was fashioned by a side-to-side iso-antiperistaltic anastomosis. After a recovery period of 2 weeks a schedule of increasing periods of occlusion was started, except for 5 dogs. The maximum tolerable occlusion time was 2.5-3 h for the ileostomy group and 4-7 h for the reservoir group. In five dogs a continent ileostomy (Kock's pouch) was constructed, which was emptied 2-5 times per 24 hours by catheterization.
as §1
as §2, with “Samples of 0.1 ml were incubated with 0.1 ml 1% (w/v) azocasein (Sigma) in phosphate buffer at 37° C. during 1 h.” left out
as §3

[7] = target: T2, lesional elastase activity in psoriasis, contact dermatitis and atopic dermatitis; details: in vitro; Wiedow et al, Dermatol 1992; cited from earlier work
[8] = test system: supernatant from feces of a patient with an ileum reservoir with a high proteolytic activity, on skin; test: Skin test on the fore-arm with fecal supernatant and STI; assay type: in vivo, human; details: 7 h incubation on fore-arm
Description: Skin tests were performed on the ventral part of the fore-arm. The following solutions were tested: 1. supernatant from feces of a patient with an ileum reservoir with a high proteolytic activity; 2. the same supernatant, but sterilised; 3. supernatant with 0.25% STI (w/v) and 4. 0.25% STI in buffer. Two hundred μl of each solution were placed on folded cambric on the skin and covered with plastic and adhesion wound pad. Total incubation time was 7 h, but after 3 and 5 h 100 μl buffer was added to each of the test patches to prevent dehydration.
After removing the pads and the cambric the skin was carefully cleaned with tap water and judged immediately and after 1-18 h.

[9] = test system: bovine pancreatic elastase; test: Effect of protease inhibitors on purified enzymes: elastase (azocasein); assay type: biochemical; details: STI, STI-A, -B, -C 0.125% end concentration, enzyme 0.02%; Trasylol undil.; PJ: 1 g PJ powder mixed with 2 ml and with 4 ml buffer
Description: as §2, with “buffer. […]” for “buffer.”

pronase = test: Effect of protease inhibitors on purified enzymes: pronase (azocasein); assay type: biochemical; details: STI-A, -B, -C 0.125% end concentration, enzyme 0.02%; PJ: 1 g PJ powder mixed with 2 ml and with 4 ml buffer
Description: as §2, with “buffer. […]” for “buffer.”

papaine = target: T3, papaine; test: Effect of protease inhibitors on purified enzymes: papain (azocasein); assay type: biochemical; details: STI-A, -B, -C 0.125% end concentration, enzyme 0.02%; PJ: 1 g PJ powder mixed with 2 ml and with 4 ml buffer
Description: as §2, with “buffer. […]” for “buffer.”

[10] = Ileostomy dog, n = 1*, inhibitor added to feces 1:2000 diluted, 20 h incubated with substrate, STI 1%
[11] = dog, n = 3°, inhibitor added to feces diluted 1:100, 2 h incubated, STI 1%

Row | Molecule | inhibition of trypsin activity [4] | inhibition of α-chymotrypsin activity [5] | % inhibition of the proteolytic activity [6, 10] [%] | % inhibition of the proteolytic activity [6, 11] [%] | % Inhibition of the proteolytic activity, trypsin [4] [%] | % Inhibition of the proteolytic activity, chymotrypsin [5] [%] | % Inhibition of the proteolytic activity, elastase [9] [%] | further results
1 | alpha1-proteinase inhibitor: protease inhibitor cited from the literature | – | – | – | – | – | – | – | effect on therapy-resistant atopic dermatitis [1]: wound healing effect
2 | sucralfate | – | – | – | – | – | – | – | peri-stomal and peri-anal irritation caused by feces [2]: reduce
3 | B1 | larger part | larger part | 93 | 84 | – | – | – | % inhibition of the proteolytic activity [3]: 68%; % inhibition of the proteolytic activity ([6]; dog, n = 1†, undiluted feces + inhibitor (3 + 1), mixing for 2 h, then diluted 1:100): 52%
4 | B2 | – | – | 93 | 84 | 99 | 99 | 15 | effect on lesional elastase activity [7]: inhibitotory effect; skin reaction ([8]; location 3: fecal supernatant with 0.25% STI (w/v), supernatant alone: moderate redness, papulas, some vesiculas): slight redness that disappeared within 60 min; skin reaction ([8]; location 4: 0.25% STI in buffer): No reaction; % inhibition of the proteolytic activity ([6]; STI 0.25%, dog, n = 3°, feces diluted 1:100, 2 h incubated): 63%; % inhibition of the proteolytic activity ([6]; STI 0.5%, dog, n = 3°, feces diluted 1:100, 2 h incubated): 61%; % inhibition of the proteolytic activity ([6]; STI 0.75%, dog, n = 3°, feces diluted 1:100, 2 h incubated): 45%; inhibition of the proteolytic activity ([6]; STI in a concentration of 1% (w/v)): > 80%
5 | B3 | larger part | larger part | – | – | 100 | 80 | 50 | % Inhibition of the proteolytic activity, pronase (pronase): 0%; % Inhibition of the proteolytic activity, papain (papaine): 0%
